Paper PMC4932716

Assays:
[1] = target: native ArtinM (jArtinM) (Artocarpus heterophyllus); experiment: SDS-PAGE of undenatured sample; undenatured protein (no thermal dissociation) loaded on 12.5 % SDS-PAGE, 3 μg per lane, Coomassie blue G-250
[2] = target: recombinant ArtinM (rArtinM) (Artocarpus heterophyllus); experiment: AUC; sedimentation velocity at 50,000 rpm, 20 °C, c(S) fit in SEDFIT; confirmed by sedimentation equilibrium

native ArtinM (jArtinM) (natural protein)
stoichiometry N [1]: 4

recombinant ArtinM (rArtinM) (natural protein)
stoichiometry N [2]: 3
